B1: SWI/SNF complex subunit SMARCC2, residues 599 to 641; numbered along this chain, Q8TAQ2 (parent)
chain: REWTEQETLLLLEALEMYKDDWNKVSEHVGSRTQDECILHFLR

± gives the uncertainty stated by the source.

In this data set the parent is B1. Briefly: abundance fitness (aPCA) (normalised: wild type 0, dead -1); higher = more abundant; growth selection in yeast, the domain comes from the species named. The conditions noted are these: Homo sapiens.
As for REWTEQETLLLLEALEMYKDEWNKVSEHVGSRTQDECILHFLR, the abundance fitness is -0.158 ± 0.071.
In the case of REWTEQETLLLLEANEMYKDDWNKVSEHVGSRTQDECILHFLR, the abundance fitness was -0.017 ± 0.13.
Turning to REWTEQETLLLLEAVEMYKDDWNKVSEHVGSRTQDECILHFLR, the abundance fitness worked out at 0.336 ± 0.064.
Take REWTEQETLLLLEADEMYKDDWNKVSEHVGSRTQDECILHFLR: the abundance fitness worked out at 0.232 ± 0.26.
The same measure for REWTEQETLLLLEALEMYKDDWNKVSEVVGSRTQDECILHFLR: -0.322 ± 0.097; for REWTEQETLLLLEALEMYKDDWNKVSEAVGSRTQDECILHFLR: -0.381 ± 0.23; for REWTEQETLLLLEALEMYKDDWNKVSERVGSRTQDECILHFLR: -0.294 ± 0.082.
With REWTEQETILLLEALEMYKDDWNKVSEHVGSRTQDECILHFLR the figure was 0.11 ± 0.096; with REWTEQETYLLLEALEMYKDDWNKVSEHVGSRTQDECILHFLR, -0.024 ± 0.094.
The same measure for REWTEQETLLLLEALEMYKDDWNKRSEHVGSRTQDECILHFLR: -0.331 ± 0.07.
Consider REWTEQETLLLLEALEMYKDDWNKISEHVGSRTQDECILHFLR, for which the abundance fitness is 0.235 ± 0.36.
As to REWTEQETLLLLEALEMYKDDWNKMSEHVGSRTQDECILHFLR, the abundance fitness came out at 0.026 ± 0.07.
The same measure for REWTEQETLLLLEALEMYKDDWNKVSEHVGSRTQDECIEHFLR: 0.335 ± 0.073.
With REWTEQETLLLLEALEMYKDDWNKVSEHVGSRTQDECIRHFLR the figure was 0.122 ± 0.066; with REWTEQETLLLLEALEMYKDDWNKVSEHVGSRCQDECILHFLR, -0.064 ± 0.13; with REWTEQETLLLLEALEMYKDDWNKVSEHVGSRGQDECILHFLR, 0 ± 0.087.
With REWTEQETLLLLEALQMYKDDWNKVSEHVGSRTQDECILHFLR the figure was -0.186 ± 0.1.
With REWTEQETLLLLEALPMYKDDWNKVSEHVGSRTQDECILHFLR, the abundance fitness is -0.018 ± 0.091.
In the case of REWTEQETLLLLEALMMYKDDWNKVSEHVGSRTQDECILHFLR, the abundance fitness is -0.439 ± 0.1.
Consider REWSEQETLLLLEALEMYKDDWNKVSEHVGSRTQDECILHFLR, for which the abundance fitness is 0.056 ± 0.067.
For the variant REWAEQETLLLLEALEMYKDDWNKVSEHVGSRTQDECILHFLR, the abundance fitness was -0.309 ± 0.084.
With REWTEQETLLLLEALEMYKDDWNKVSEHKGSRTQDECILHFLR the figure was -0.53 ± 0.26.
In the case of REWTEQETLLLLEALEMYKDDWNKVSEHCGSRTQDECILHFLR, the abundance fitness was -0.635 ± 0.2.
The same measure for REWTEQETLLLLEALEMYKDDWNKVSEHEGSRTQDECILHFLR: -0.711 ± 0.18; for REWTEQETLLLLEALEMYKDDWNKVSEHGGSRTQDECILHFLR: -0.835 ± 0.27.
With REWTEQETLLLLEALEMYKDDWNKVVEHVGSRTQDECILHFLR the figure was 0.071 ± 0.064.
With REWTEQETLLLLEALEMYKDDWNKVYEHVGSRTQDECILHFLR the figure was -0.252 ± 0.12.
Regarding REWTEQETLLLLEALEMYKDDWNKVCEHVGSRTQDECILHFLR, the abundance fitness is -0.07 ± 0.088.
With REWTEQETLLLLEALEMYKDDWNKVQEHVGSRTQDECILHFLR the figure was -0.449 ± 0.15.
For the variant REWTEQETLLLLEALEMYKDDWNKVREHVGSRTQDECILHFLR, the abundance fitness was 0.219 ± 0.066.
With REWTEQETLLLLEALEMYKDDWNKVGEHVGSRTQDECILHFLR the figure was 0.084 ± 0.069; with REWTEQETLLLLEALEMYKDDWNKVFEHVGSRTQDECILHFLR, -0.709 ± 0.12; with REWTEQETLLLLEALEMYKDDWNKVAEHVGSRTQDECILHFLR, 0.303 ± 0.087.
The same measure for REWTEQETLLLLEPLEMYKDDWNKVSEHVGSRTQDECILHFLR: -0.987 ± 0.21; for REWTEQETLLLLESLEMYKDDWNKVSEHVGSRTQDECILHFLR: -0.181 ± 0.067; for REWTEQETLLLLEELEMYKDDWNKVSEHVGSRTQDECILHFLR: -0.776 ± 0.3.
As for REWTEQETLLLLEMLEMYKDDWNKVSEHVGSRTQDECILHFLR, the abundance fitness was -0.991 ± 0.17.
Consider REWTEQETLLLLELLEMYKDDWNKVSEHVGSRTQDECILHFLR, for which the abundance fitness is -0.778 ± 0.084.
With REWTEQETLLLLEALEMYKDDWNKVSEHVGSFTQDECILHFLR, the abundance fitness is -0.417 ± 0.33.
The same measure for REWTEQETLLLLEALEMYKDDWNSVSEHVGSRTQDECILHFLR: -0.081 ± 0.063.
Turning to REWTEQETLLLLEALEMYKDDWNKVSEHVGSRTQDVCILHFLR, the abundance fitness is -1.15 ± 0.2.
With REWTEQETLLLLEALEMYKDDWNKVSEHVGSRTQDFCILHFLR the figure was -0.523 ± 0.24.
As for REWTEQETLLLLEALEMYKDDWNKVSEHVGSRTQDDCILHFLR, the abundance fitness was -0.003 ± 0.12.
With REWTEQETLLLLEALEMYKDDWNKVSEHVGSRTQHECILHFLR, the abundance fitness stood at 0.108 ± 0.1.
On to REWTEQETLLLLEALEMYKDDWNKVSEHVGSRTQPECILHFLR, for which the abundance fitness stood at 0.066 ± 0.071.
RAWTEQETLLLLEALEMYKDDWNKVSEHVGSRTQDECILHFLR: the abundance fitness is 0.077 ± 0.058.
On to RPWTEQETLLLLEALEMYKDDWNKVSEHVGSRTQDECILHFLR, for which the abundance fitness turned out to be 0.278 ± 0.12.
As for RFWTEQETLLLLEALEMYKDDWNKVSEHVGSRTQDECILHFLR, the abundance fitness was -0.463 ± 0.28.
The same measure for RVWTEQETLLLLEALEMYKDDWNKVSEHVGSRTQDECILHFLR: 0.247 ± 0.11.
With REWTEQETLLLLEALERYKDDWNKVSEHVGSRTQDECILHFLR the figure was 0.118 ± 0.061.
The same measure for REWTEQETLLLLEALEGYKDDWNKVSEHVGSRTQDECILHFLR: -0.154 ± 0.072; for REWTEQETLLLLEALEPYKDDWNKVSEHVGSRTQDECILHFLR: -0.501 ± 0.16.
Take REWTEQETLLLLEALEWYKDDWNKVSEHVGSRTQDECILHFLR: the abundance fitness was -0.118 ± 0.098.
On to REWTEQETLLLLEALETYKDDWNKVSEHVGSRTQDECILHFLR, for which the abundance fitness is -0.054 ± 0.12.
With REWTEQETLLLLEALEMYKDDYNKVSEHVGSRTQDECILHFLR the figure was -0.115 ± 0.32; with REWTEQETLLLLEALEMYKDDGNKVSEHVGSRTQDECILHFLR, -0.615 ± 0.1; with REWTEQETLLLLEALEMYKDDSNKVSEHVGSRTQDECILHFLR, -0.91 ± 0.17.
With REWTEQETLLLLEALEMYKDDMNKVSEHVGSRTQDECILHFLR, the abundance fitness was -0.412 ± 0.11.
The same measure for REWTEQETLLLSEALEMYKDDWNKVSEHVGSRTQDECILHFLR: -0.169 ± 0.2.
